Experimental data taken from patent publication US20050064507A1, “Determining kinase specificity” (priority 2003, published 2005).

Key:
[1] = target: MLK3 peptide … (SEQ ID NO:76) after phosphorylation by PKC-theta (human); experiment: pPKC Ab binding to biotinylated peptide on avidin-coated plate; signal after minus signal without PKC-theta
[2] = target: LIMK-2 peptide … (SEQ ID NO:121) after phosphorylation by PKC-theta (human); experiment: as above
[3] = target: MLK3 peptide … (SEQ ID NO:76) after phosphorylation by PKC-theta (human); experiment: pPKC Ab binding to biotinylated peptide on avidin-coated plate
[4] = target: LIMK-2 peptide … (SEQ ID NO:121) (human); experiment: as above
[5] = target: LIMK-2 peptide … (SEQ ID NO:121) after phosphorylation by PKC-theta (human); experiment: as above
[6] = target: MLK3 peptide … (SEQ ID NO:76) (human); experiment: as above
[7] = target: SHP-1 phosphopeptide PSEPGGVL-pS-FLDQINQR (SEQ ID NO:293) (human); experiment: ELISA on phosphopeptides synthesized in microtiter wells; conditions: scale: normalized
[8] = target: SHP-1 phosphopeptide PWTFLVRE-pS-LSQPGDFV (SEQ ID NO:295) (human); experiment: as above; conditions: scale: normalized
[9] = target: SHP-1 phosphopeptide KNQGDFSL-pS-VRVGDQVT (SEQ ID NO:296) (human); experiment: as above; conditions: scale: normalized
[10] = target: SHP-1 phosphopeptide HAKASRTS-pS-KHKEDVYE (SEQ ID NO:294) (human); experiment: as above; conditions: scale: normalized
[11] = target: SHP-1 phosphopeptide LKGRGVHG-pS-FLARPSRK (SEQ ID NO:299) (human); experiment: as above; conditions: scale: normalized
[12] = target: SHP-1 phosphopeptide PLNCSDPT-pS-ERWYHGHM (SEQ ID NO:297) (human); experiment: as above; conditions: scale: normalized
[13] = target: SHP-1 phosphopeptide MKNAHAKA-pS-RTSSKHKE (SEQ ID NO:289) (human); experiment: as above; conditions: scale: normalized
[14] = target: SHP-1 phosphopeptide RVILQGRD-pS-NIPGSDYI (SEQ ID NO:290) (human); experiment: as above; conditions: scale: normalized
[15] = target: SHP-1 phosphopeptide ADKEKSKG-pS-LKRK (SEQ ID NO:298) (human); experiment: as above; conditions: scale: normalized
[16] = target: SHP-1 phosphopeptide AHAKASRT-pS-SKHKEDVY (SEQ ID NO:291) (human); experiment: as above; conditions: scale: normalized
[17] = target: SHP-1 phosphopeptide HGSFLARP-pS-RKNQGDFS (SEQ ID NO:300) (human); experiment: as above; conditions: scale: normalized
[18] = target: SHP-1 phosphopeptide KKKLEVLQ-pS-QKGQESEY (SEQ ID NO:292) (human); experiment: as above; conditions: scale: normalized

pPKC Ab Signal amount dependent on PKC phosphorylation [1]: 0.95 | pPKC Ab Signal amount dependent on PKC phosphorylation [2]: 1.11 | pPKC Ab Signal on peptide after exposure to PKC-theta phosphorylation [3]: 1.02 | pPKC Ab Signal on peptide without exposure to PKC-theta [4]: 0.02 | pPKC Ab Signal on peptide after exposure to PKC-theta phosphorylation [5]: 1.13 | pPKC Ab Signal on peptide without exposure to PKC-theta [6]: 0.07 | Binding of pPKC antibody [7]: 9 | Binding of pPKC antibody [8]: 5 | Binding of pPKC antibody [9]: 3 | Binding of pPKC antibody [10]: 7 | Binding of pPKC antibody [11]: 54 | Binding of pPKC antibody [12]: 0 | Binding of pPKC antibody [13]: 18 | Binding of pPKC antibody [14]: 13 | Binding of pPKC antibody [15]: 100 | Binding of pPKC antibody [16]: 12 | Binding of pPKC antibody [17]: 39 | Binding of pPKC antibody [18]: 11
Substance: phospho-PKC motif antibody (Phospho-(Ser) PKC Substrate Antibody, Cell Signaling Technology)
